The labels stand for the following.
B1: MBP-Vac17(H) [budding yeast] / Strep II-Myo2(1150–1567) [budding yeast] (parent complex)
chain 1: MATQALEDITERLLIRSQEAILQLDLWIQRQQRSSICQTTDQESLDKLSQQYNQYMSQLNSLYVRSESVRDKLSKEQQRRLITEDNEHQRIEDLVREFQDITLRLNELA
chain 2: GVNATQINEELYRLLEDTEILNQEITEGLLKGFEVPDAGVAIQLSKRDVVYPARILIIVLSEMWRFGLTKQSESFLAQVLTTIQKVVTQLKGNDLIPSGVFWLANVRELYSFVVFALNSILTEETFKNGMTDEEYKEYVSLVTELKDDFEALSYNIYNIWLKKLQKQLQKKAINAVVISESLPGFSAGETSGFLNKIFANTEEYTMDDILTFFNSIYWCMKSFHIENEVFHAVVTTLLNYVDAICFNELIMKRNFLSWKRGLQLNYNVTRLEEWCKTHGLTDGTECLQHLIQTAKLLQVRKYTIEDIDILRGICYSLTPAQLQKLISQYQVADYESPIPQEILRYVADIVKKEAALSSSGNDSKGHEHSSSIFITPETGPFTDPFSLIKTRKFDQVEAYIPAWLSLPSTKRIVDLVAQ

The assay covers variants of B1. The experiment in a line: pull-down; Strep II-Myo2 tail co-expressed with MBP-Vac17(H) and immobilized on Strep-Tactin beads; normalized to Vac17 and Myo2 input levels; parent: 1; read off a plot.
As for chain 2 GVNATQINEELYRLLEDTEILNQEITEGLLKGFEVPDAGVAIQLSKRDVVYPARILIIVLSEMWRFGLTKQSESFLAQVLTTIQKVVTQLKGNDLIPSGVFWLANVRELYSFVVFALNSILTEETFKNGMTDEEYKEYVSLVTELKDDFEALSYNIYNIWLKKLQKQLQKKAINAVVISESLPGFSAGETSGFLNKIFANTEEYTMDDILTFFNSIYWCMKSFHIENEVFHAVVTTLLNYVDAICFNELIMKRNFLSWARGLQLNYNVTRLEEWCKTHGLTDGTECLQHLIQTAKLLQVEKYTIEDIDILRGICYSLTPAQLQKLISQYQVADYESPIPQEILRYVADIVKKEAALSSSGNDSKGHEHSSSIFITPETGPFTDPFSLIKTRKFDQVEAYIPAWLSLPSTKRIVDLVAQ [chain 2 K259A, chain 2 R300E], the ratio to parent is around 0.59.

For the variant chain 2 GVNATQINEELYRLLEDTEILNQEITEGLLKGFEVPDAGVAIQLSKRDVVYPARILIIVLSEMWRFGLTKQSESFLAQVLTTIQKVVTQLKGNDLIPSGVFWLANVRELYSFVVFALNSILTEETFKNGMTDEEYKEYVSLVTELKDDFEALSYNIYNIWLKKLQKQLQKKAINAVVISESLPGFSAGRTSGFLNKIFANTEEYTMDDILTFFNSIYWCMKSFHIENEVFHAVVTTLLNYVDAICFNELIMKRNFLSWARGLQLNYNVTRLEEWCKTHGLTDGTECLQHLIQTAKLLQARKYTIEDIDILRGICYSLTPAQLQKLISQYQVADYESPIPQEILRYVADIVKKEAALSSSGNDSKGHEHSSSIFITPETGPFTDPFSLIKTRKFDQVEAYIPAWLSLPSTKRIVDLVAQ [chain 2 E189R, chain 2 K259A, chain 2 V299A], the ratio to parent is around 0.4.
